Measured values from article PMC3937768 (Cell metabolism, 2014).

Molecular target: the molecule itself
Experiment: non-reducing SDS-PAGE with immunoblot

B1: Recombinant AMPKα2 (enzyme, rat, UniProt Q09137 1-552, looked up)
chain: MAEKQKHDGRVKIGHYVLGDTLGVGTFGKVKIGEHQLTGHKVAVKILNRQKIRSLDVVGKIKREIQNLKLFRHPHIIKLYQVISTPTDFFMVMEYVSGGELFDYICKHGRVEEVEARRLFQQILSAVDYCHRHMVVHRDLKPENVLLDAQMNAKIADFGLSNMMSDGEFLRTSCGSPNYAAPEVISGRLYAGPEVDIWSCGVILYALLCGTLPFDDEHVPTLFKKIRGGVFYIPEYLNRSIATLLMHMLQVDPLKRATIKDIREHEWFKQDLPSYLFPEDPSYDANVIDDEAVKEVCEKFECTESEVMNSLYSGDPQDQLAVAYHLIIDNRRIMNQASEFYLASSPPTGSFMDDMAMHIPPGLKPHPERMPPLIADSPKARCPLDALNTTKPKSLAVKKAKWHLGIRSQSKPYDIMAEVYRAMKQLDFEWKVVNAYHLRVRRKNPVTGNYVKMSLQLYLVDNRSYLLDFKSIDDEVVEQRSGSSTPQRSCSAAGLHRPRSSVDSSTAENHSLSGSLTGSLTGSTLSSASPRLGSHTMDFFEMCASLITALAR
binding result: binds
